Experimental data as given in paper PMC9054013, “FCHO controls AP2’s initiating role in endocytosis through a PtdIns(4,5)P2-dependent switch” (Science Advances, 2022).
pKd: −log10 of the molar value. One block for each substance: values may come before it.

Experiments:
[1] = target: GST-TGN38 (pGEX4T2 linker TGN38); assay: BLI; GST-TGN38 loaded on anti-GST biosensors; AP2 core (3.3 to 0.1 μM) or AP2 FCHO2 chimera (2.6 to 0.9 μM) in solution; physiological buffer; association 20 min, dissociation 25 min
[2] = target: Cμ2 (μ2 residues 160 to 435) (UniProt P84092); assay: ITC; Cμ2 with FCHO2 constructs or peptides; 100 mM tris pH 7.4, 150 mM NaCl, 0.25 mM TCEP; 12°C; Nano ITC
[3] = target: AP2 α-appendage (residues 695 to 938) (UniProt P17427); assay: ITC; α-appendage or β2-appendage with C block peptides; 100 mM tris pH 7.4, 150 mM NaCl, 0.25 mM TCEP; 12°C; peptides 1 to 5 mM titrated
[4] = target: GST-FCHO1 linker wt (N123C) (residues 316 to 444) (human) (UniProt O14526); assay: BLI; GST-FCHO1 or GST-FCHO2 linker loaded on anti-GST biosensors, blocked with GST-ARRS control; AP2 core in solution (twofold dilutions, 13.5 to 0.8 and 10.0 to 0.2 μM); 25°C; 0.1% NP-40, BSA 1 mg/ml; equilibrium analysis; near-physiological conditions
[5] = target: GST-FCHO2 linker wt (residues 314 to 444) (human) (UniProt Q0JRZ9); assay: as above
Chain of GST-FCHO2 linker wt (residues 314 to 444) (human) (Q0JRZ9 314-444): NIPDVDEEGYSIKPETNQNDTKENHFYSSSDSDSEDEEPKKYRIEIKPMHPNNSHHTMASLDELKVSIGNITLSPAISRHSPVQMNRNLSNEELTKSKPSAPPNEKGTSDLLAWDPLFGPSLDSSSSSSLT

Chain of Cμ2 (μ2 residues 160 to 435) (P84092 160-435): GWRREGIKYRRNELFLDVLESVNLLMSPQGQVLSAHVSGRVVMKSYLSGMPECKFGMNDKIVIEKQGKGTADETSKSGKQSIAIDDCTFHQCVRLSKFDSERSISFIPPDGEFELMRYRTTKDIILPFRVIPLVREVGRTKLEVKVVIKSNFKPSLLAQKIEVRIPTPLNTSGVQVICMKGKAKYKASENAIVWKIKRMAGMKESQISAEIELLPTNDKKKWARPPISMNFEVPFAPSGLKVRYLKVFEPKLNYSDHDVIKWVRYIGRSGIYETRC
Chain of AP2 α-appendage (residues 695 to 938) (P17427 695-938): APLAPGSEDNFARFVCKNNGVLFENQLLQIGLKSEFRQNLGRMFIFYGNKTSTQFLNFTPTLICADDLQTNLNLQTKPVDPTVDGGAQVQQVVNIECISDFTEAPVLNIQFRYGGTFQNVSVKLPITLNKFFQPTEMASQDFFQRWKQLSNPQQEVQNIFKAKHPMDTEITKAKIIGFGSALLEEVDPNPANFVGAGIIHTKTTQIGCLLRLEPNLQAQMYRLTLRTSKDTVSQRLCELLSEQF
Chain of GST-FCHO1 linker wt (N123C) (residues 316 to 444) (human) (O14526 316-444, stated change not applied): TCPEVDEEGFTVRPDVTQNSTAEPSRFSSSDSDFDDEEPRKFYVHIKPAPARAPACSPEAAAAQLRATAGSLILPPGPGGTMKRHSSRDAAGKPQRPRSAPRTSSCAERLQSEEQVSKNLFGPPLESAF
Chain of GST-TGN38 (pGEX4T2 linker TGN38) (Q9UJY5 other isoform, or with tags, fused parts or gaps): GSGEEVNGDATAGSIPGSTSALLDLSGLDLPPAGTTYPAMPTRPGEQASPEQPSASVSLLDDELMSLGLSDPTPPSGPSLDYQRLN

fold tighter binding than AP2 core [1]: 3 fold
Substance: AP2:μ2FCHO2-N1+N2+N3 chimeric AP2 core (from UniProt P62743 1-142; P63010 1-591; Q0JRZ9-1 314-444) (complex)

fold reduction of binding against N1+N2 [2]: 5 fold
Substance: FCHO2 N1 alone (ITC) (from UniProt Q0JRZ9-1 314-340) (domain or fragment)

pKd [3]: 4.30
Substance: FCHO1 C peptide (residues 426 to 448)

pKd [2]: 4.60
Substance: FCHO2-N1+N2 (ITC) (from UniProt Q0JRZ9-1 314-356) (domain or fragment)

pKd [4]: 5.07
pKd [5]: 5.01
Substance: AP2 core (recombinant) (from UniProt P63010 1-591; P84092 1-435; P62743 1-142) (complex)
